Test results published in US20240272170A1 (QUANTUM SI, published 2024).

Assays:
[1] = molecular target: T1, QP1165 after cleavage to N-terminal leucine (LKQRVWK); assay: on-chip dynamic sequencing of QP1165, PS2132 run, trace Aperture=1826247
T1 peptide: LKQRVWK

[2] = molecular target: T1, QP1165 after cleavage to N-terminal …; assay: on-chip dynamic sequencing of QP1165, 500 nM PS2132 plus five recognizers, 36192 alignments
[3] = molecular target: T2, QP1165 after cleavage to N-terminal isoleucine (IAFLKQRVWK); assay: as above
T2 peptide: IAFLKQRVWK

[4] = molecular target: T1, QP1165 after cleavage to N-terminal …; assay: on-chip dynamic sequencing of QP1165, PS2123 run, trace Aperture=501326
[5] = molecular target: T2, QP1165 after cleavage to N-terminal …; assay: as above
[6] = molecular target: T1, QP1165 after cleavage to N-terminal …; assay: on-chip dynamic sequencing of QP1165, PS2123 run, trace Aperture=1168773
[7] = molecular target: T2, QP1165 after cleavage to N-terminal …; assay: as above
[8] = molecular target: T1, QP1165 after cleavage to N-terminal …; assay: on-chip dynamic sequencing of QP1165, 500 nM PS2121 plus five recognizers, 15527 alignments
[9] = molecular target: T2, QP1165 after cleavage to N-terminal …; assay: as above
[10] = molecular target: T1, QP1165 after cleavage to N-terminal …; assay: on-chip dynamic sequencing of QP1165, 500 nM PS2123 plus five recognizers, 62511 alignments
[11] = molecular target: T2, QP1165 after cleavage to N-terminal …; assay: as above
[12] = molecular target: T1, QP1165 after cleavage to N-terminal …; assay: on-chip dynamic sequencing of QP1165, 500 nM PS1875 plus five recognizers, 3369 alignments
[13] = molecular target: T2, QP1165 after cleavage to N-terminal …; assay: as above
[14] = molecular target: T1, QP1165 after cleavage to N-terminal …; assay: on-chip dynamic sequencing of QP1165, PS1875 run, trace Aperture=340501
[15] = molecular target: T2, QP1165 after cleavage to N-terminal …; assay: as above
[16] = molecular target: T1, QP1165 after cleavage to N-terminal …; assay: on-chip dynamic sequencing of QP1165, PS2121 run, trace Aperture=1683362
[17] = molecular target: T2, QP1165 after cleavage to N-terminal …; assay: as above
[18] = molecular target: T1, QP1165 after cleavage to N-terminal …; assay: on-chip dynamic sequencing of QP1165, PS2121 run, trace Aperture=740473
[19] = molecular target: T2, QP1165 after cleavage to N-terminal …; assay: as above
[20] = molecular target: T2, QP1165 after cleavage to N-terminal …; assay: on-chip dynamic sequencing of QP1165, PS2132 run, trace Aperture=376215
[21] = molecular target: T1, QP1165 after cleavage to N-terminal …; assay: on-chip dynamic sequencing of QP1165, PS1875 run, trace Aperture=430641

B1: PS1223 (designed binder)
single polypeptide, two PS961 units in tandem: MPTAASATESAIEDTPAPARPEVDGRTKPKRQPRYHVVLWDDDDHTYQYVVVMLRSLFGHPPSRGYRMAKEMDTQGRVIVLTTTREHAELKRDQIHAFGRDRLLARSKGSMKASIEAEEGSAGSAAGSGEFGSAGSAAGSGEFGSAGSAAGSGEFMPTAASATESAIEDTPAPARPEVDGRTKPKRQPRYHVVLWDDDDHTYQYVVVMLRSLFGHPPSRGYRMAKEMDTQGRVIVLTTTREHAELKRDQIHAFGRDRLLARSKGSMKASIEAEE
notes: dye-labelled recognizer for N-terminal L, I, V in the six-recognizer runs; also called PS1223 (LIV)
B1 was tested, and the “PD of a recognition segment in an example trace” value (shortened to “PD of a recognition segment”) [1] was 0.52 s, the “IPD (interpulse duration)” value [2] was 17.4 s and the “PD (pulse duration)” value [2] was 0.54 s. The “IPD (interpulse duration)” value [3] was 9.74 s, the “PD (pulse duration)” value [3] was 0.66 s and the “PD of a recognition segment” value [4] was 0.39 s. The “PD of a recognition segment” value [5] was 0.51 s, the “PD of a recognition segment” value [6] was 0.39 s and the “PD of a recognition segment” value [7] was 0.53 s. For the same binder, the “IPD (interpulse duration)” value [8] was 16.6 s, the “PD (pulse duration)” value [8] was 0.63 s and the “IPD (interpulse duration)” value [9] was 8.64 s. For the same binder, the “PD (pulse duration)” value [9] was 0.7 s, the “IPD (interpulse duration)” value [10] was 17.3 s and the “PD (pulse duration)” value [10] was 0.54 s. For the same binder, the “IPD (interpulse duration)” value [11] was 9.24 s, the “PD (pulse duration)” value [11] was 0.73 s and the “IPD (interpulse duration)” value [12] was 15.3 s. The “PD (pulse duration)” value [12] was 0.66 s, the “IPD (interpulse duration)” value [13] was 7.33 s and the “PD (pulse duration)” value [13] was 1.18 s. For the same binder, the “PD of a recognition segment” value [14] was 0.36 s, the “PD of a recognition segment” value [15] was 0.49 s and the “PD of a recognition segment” value [16] was 0.28 s. For the same binder, the “PD of a recognition segment” value [17] was 0.52 s, the “PD of a recognition segment” value [18] was 0.49 s and the “PD of a recognition segment” value [19] was 0.5 s. The “PD of a recognition segment” value [20] was 0.49 s and the “PD of a recognition segment” value [21] was 0.64 s.
